The source of these data is US20250152704A1 (PARAGON THERAPEUTICS, published 2025).

T1: mouse FcRn (mouse, UniProt Q61559 22-297; P01887 21-119, limits assumed)
T1 sequence (looked up) 1: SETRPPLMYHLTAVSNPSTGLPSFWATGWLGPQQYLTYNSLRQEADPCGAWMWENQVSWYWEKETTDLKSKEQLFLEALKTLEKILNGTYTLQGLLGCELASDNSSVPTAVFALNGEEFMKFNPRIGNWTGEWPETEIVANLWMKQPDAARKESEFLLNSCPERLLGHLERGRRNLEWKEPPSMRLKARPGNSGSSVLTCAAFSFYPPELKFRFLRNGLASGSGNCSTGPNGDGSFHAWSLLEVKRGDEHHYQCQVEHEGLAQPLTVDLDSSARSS
T1 sequence (looked up) 2: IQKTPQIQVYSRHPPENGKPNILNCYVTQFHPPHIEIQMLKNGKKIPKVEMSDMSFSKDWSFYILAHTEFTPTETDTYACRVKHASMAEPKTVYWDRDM

T2: rat FcRn (rat, UniProt P13599 23-298; P07151 21-119, limits assumed)
T2 sequence (looked up) 1: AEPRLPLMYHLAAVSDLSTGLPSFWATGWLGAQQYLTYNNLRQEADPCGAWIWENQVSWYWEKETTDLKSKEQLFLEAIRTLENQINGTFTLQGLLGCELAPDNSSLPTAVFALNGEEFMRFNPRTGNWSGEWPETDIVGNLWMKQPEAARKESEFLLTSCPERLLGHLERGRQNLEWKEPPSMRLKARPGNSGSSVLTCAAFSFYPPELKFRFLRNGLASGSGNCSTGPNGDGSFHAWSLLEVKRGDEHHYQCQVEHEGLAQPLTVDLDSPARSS
T2 sequence (looked up) 2: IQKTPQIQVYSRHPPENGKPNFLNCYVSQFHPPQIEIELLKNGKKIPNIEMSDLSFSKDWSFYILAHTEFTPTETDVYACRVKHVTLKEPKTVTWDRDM

B1: Fc Fragment 1 (other)
chain: DKTHTCPPCPAPELLGGPSVFLFPPKPKDTLYITREPEVTCVVVDVSHEDPEVKFNWYVDGVEVHNAKTKPREEQYNSTYRVVSVLTVLHQDWLNGKEYKCKVSNKALPAPIEKTISKAKGQPREPQVYTLPPSRDELTKNQVSLTCLVKGFYPSDIAVEWESNGQPENNYKTTPPVLDSDGSFFLYSKLTVDKSRWQQGNVFSCSVMHEALKFHYTQKSLSLSPG
notes: Human IgG1 Fc fragment (EU 221-446) with the named substitutions already in the entry; also called Efgartigimod (Efgart); Efgartigimod without the C-terminal lysine
B2: Fc Fragment 15 (other)
chain: B1 chain with L89D
notes: Human IgG1 Fc fragment; substitutions already in the entry
B3: Fc Fragment 16 (other)
chain: B1 chain with L89D, F214Y
notes: as for B2
B4: Fc Fragment 11 (other)
chain: B1 chain with M208L, K213H
notes: as for B2
B5: Fc Fragment 13 (other)
chain: B1 chain with K213R
notes: as for B2
B6: Fc Fragment 2 (other)
chain: B1 chain with M208L
notes: Human IgG1 Fc fragment; substitutions already in the entry; also called Fc195
B7: Fc Fragment 20 (other)
chain: B1 chain with L89D, Q91K, F214Y
notes: as for B2
B8: Fc Fragment 14 (other)
chain: B1 chain with M208L, K213R
notes: as for B2
B9: Fc Fragment 3 (other)
chain: B1 chain with F214Y
notes: Human IgG1 Fc fragment; substitutions already in the entry; also called Fc197
B10: Fc Fragment 19 (other)
chain: B1 chain with L89D, Q91K
notes: as for B2
B11: Fc Fragment 17 (other)
chain: B1 chain with L89D, M208L
notes: as for B2
B12: Fc Fragment 12 (other)
chain: B1 chain with K213R, F214Y
notes: as for B2
B13: Fc Fragment 18 (other)
chain: B1 chain with L89D, M208L, F214Y
notes: as for B2
B14: Fc Fragment 10 (other)
chain: B1 chain with M208L, F214Y
notes: as for B2
B15: Fc Fusion Molecule 22 (Fc fusion)
chain 1: DKTHTCPPCPAPELLGGPSVFLFPPKPKDTLYITREPEVTCVVVDVSHEDPEVKFNWYVDGVEVHNAKTKPREEQYNSTYRVVSVLTVLHQDWLNGKEYKCKVSNKALPAPIEKTISKAKGQPREPQVCTLPPSRDELTKNQVSLSCAVKGFYPSDIAVEWESNGQPENNYKTTPPVLDSDGSFFLVSKLTVDKSRWQQGNVFSCSVMHEALKYHYTQKSLSLSPGGGGGSGGGGSGGGGSEVQLLESGGGLVQPGGSLRLSCAASGFTFRSFGMSWVRQAPGKGPEWVSSISGSGSDTLYADSVKGRFTISRDNSKNTLYLQMNSLRPEDTAVYYCTIGGSLSRSSQGTLVTVSS
chain 2: B1 chain with S134C, T146W, F214Y

Substitutions are numbered along the chain they refer to.

T3 sequence (P55899 24-297 limits assumed, chain 1 of 2): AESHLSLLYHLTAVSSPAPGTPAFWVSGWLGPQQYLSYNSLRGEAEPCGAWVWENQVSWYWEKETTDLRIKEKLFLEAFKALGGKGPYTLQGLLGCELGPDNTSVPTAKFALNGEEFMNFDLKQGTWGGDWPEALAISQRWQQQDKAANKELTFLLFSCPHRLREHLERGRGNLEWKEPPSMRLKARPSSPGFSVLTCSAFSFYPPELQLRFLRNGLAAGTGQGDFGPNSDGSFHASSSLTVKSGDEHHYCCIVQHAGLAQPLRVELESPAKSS
T3 sequence (P61769 21-119 limits assumed, chain 2 of 2): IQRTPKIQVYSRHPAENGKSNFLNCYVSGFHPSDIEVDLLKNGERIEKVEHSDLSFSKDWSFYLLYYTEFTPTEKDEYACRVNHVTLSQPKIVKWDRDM

The first assay concerns the target T3, Recombinant in-house Human FcRn protein (human, UniProt P55899 24-297; P61769 21-119, limits assumed).
T3 construct: also called huFCRN; HuFcRn
Nature of the assay: competitive binding ELISA, pH 6.0, in triplicate; competitor IgG. A general note: In an ELISA, binding on a coated surface is turned into a signal by an enzyme label.
As usually defined, the IC50 is the concentration at which inhibition is half-maximal. Turning to B1, the IC50 is 2.85 nM.
Turning to B2, the IC50 was 30.3 nM.
Turning to B3, the concentration for half-maximal inhibition (IC50) was found to be 8.45 nM.
Still for that read-out and setting: with B4 the figure was 1.51 nM.
For the molecule B5, the IC50 came out at 1.13 nM.
Consider B6, for which the IC50 was 1.31 nM.
For B7, the IC50 came to 5.18 nM.
For B8, the 50% inhibitory concentration (IC50) came to 2.09 nM.
In the case of B9, the concentration for half-maximal inhibition (IC50) turned out to be 0.77 nM.
Turning to B10, the IC50 is 7.98 nM.
Consider B11, for which the IC50 was found to be 10.2 nM.
B12: the half-inhibitory concentration (IC50) stood at 1.41 nM.
On to B13, for which the concentration for half-maximal inhibition (IC50) worked out at 6.91 nM.

For a further assay, the target named is T3, Recombinant in-house Human FcRn protein. Kind of assay: SPR, pH 6. (SPR reads the build-up and loss of mass on a sensor chip optically.)
The term Kd denotes the free concentration of one partner at which half of the binding sites on the other are occupied at equilibrium, for simple one-to-one binding. Consider B1, for which the dissociation constant Kd was found to be 8.8 nM.
As for B2, the Kd was determined as 76.4 nM.
As to B4, the Kd is 8.41 nM.
On to B5, for which the equilibrium dissociation constant (Kd) worked out at 9.53 nM.
Consider B6, for which the equilibrium dissociation constant (Kd) is 8.05 nM.
The same measure, in the same setting: with B14 the figure was 6.62 nM; with B7, 51.7 nM.
In the case of B8, the Kd was 8.26 nM.
On the same count and under the same terms, with B9 the figure was 6.74 nM; with B10, 80.4 nM.
Consider B11, for which the dissociation constant (Kd) came to 68.3 nM.
As for B12, the dissociation constant Kd worked out at 7.15 nM.
B13: the dissociation constant Kd stood at 58.7 nM.

The next assay deals with T1, mouse FcRn. Kind of assay: SPR, pH 6.
For the molecule B1, the affinity, expressed as Kd, was 0.269 nM.
Molecule B4 had a dissociation constant (Kd) of 0.248 nM.
For B5, the dissociation constant Kd was 0.2 nM.
On the same count and under the same terms, with B6 the figure was 0.182 nM; with B14, 0.143 nM.
On to B8, for which the dissociation constant Kd turned out to be 0.288 nM.
As for B9, the dissociation constant (Kd) was determined as 0.172 nM.
Consider B12, for which the Kd amounted to 0.194 nM.

Another assay has as its target T2, rat FcRn. Nature of the assay: SPR, pH 6.
Take B1: binding was put at a Kd of 3.71 nM.
B4 displayed a dissociation constant (Kd) of 2.9 nM.
The molecule B5 registered a Kd of 4.33 nM.
Take B6: the dissociation constant Kd is 3.5 nM.
Turning to B14, the equilibrium dissociation constant (Kd) worked out at 3.49 nM.
On the same count and under the same terms, for B8 the value was 3.94 nM.
Take B9: the Kd came to 4.25 nM.
B12 returned a Kd of 5.41 nM.

The target of the next assay is T4, cynomolgus monkey FcRn (cynomolgus monkey, UniProt Q8SPV9 24-297; Q8SPW0 21-119, limits assumed).
T4 construct: also called cynoFcRn
Kind of assay: SPR, pH 6.
Molecule B1 returned a Kd of 39.7 nM.
On the same count and under the same terms, for B2 the value was 60.8 nM.
Molecule B3 registered a Kd of 47.2 nM.
The same measure, in the same setting: for B4 the value was 38.6 nM; for B5, 41.7 nM.
On the same count and under the same terms, with B6 the figure was 36.2 nM.
B14: the equilibrium dissociation constant (Kd) is 28.6 nM.
The molecule B7 displayed an equilibrium dissociation constant (Kd) of 372 nM.
For the molecule B8, the equilibrium dissociation constant (Kd) worked out at 36.1 nM.
The same measure, in the same setting: for B9 the value was 28.9 nM; for B10, 1250 nM.
Turning to B11, the Kd came out at 62.1 nM.
The same measure, in the same setting: with B12 the figure was 30.1 nM.
Still for that read-out and setting: with B13 the figure was 51.2 nM.

The target in another assay is T3, Recombinant in-house Human FcRn protein. Kind of assay: SPR, pH 7.4.
Turning to B1, the Kd came to 239 nM.
For B2, the Kd worked out at 291 nM.
As to B3, the equilibrium dissociation constant (Kd) turned out to be 371 nM.
B4: the dissociation constant Kd came to 269 nM.
Regarding B5, the dissociation constant (Kd) turned out to be 248 nM.
As for B6, the Kd is 259 nM.
Same read-out and setting: for B14 the value was 169 nM; for B7, 290 nM.
For B8, the Kd was found to be 249 nM.
Turning to B9, the Kd amounted to 210 nM.
For the molecule B10, the dissociation constant (Kd) is 252 nM.
On the same count and under the same terms, for B11 the value was 293 nM; for B12, 166 nM; for B13, 262 nM.

The target in the next assay is T1, mouse FcRn. Nature of the assay: SPR, pH 7.4.
B1 came in with a Kd of 2.8 nM.
Molecule B4 had a Kd of 4.05 nM.
B5 yielded a Kd of 2.73 nM.
On the same count and under the same terms, with B6 the figure was 2.55 nM; with B14, 1.53 nM; with B8, 2.34 nM.
The molecule B9 showed a Kd of 2.38 nM.
Same read-out and setting: with B12 the figure was 2.83 nM.

The target in a further assay is T2, rat FcRn. Nature of the assay: SPR, pH 7.4.
As to B1, the Kd came to 12.3 nM.
The molecule B4 yielded a dissociation constant (Kd) of 14.7 nM.
Turning to B5, the affinity, expressed as Kd, was 16.2 nM.
In turn, B6 showed a Kd of 11.8 nM.
In turn, B14 showed a Kd of 11.5 nM.
B8 registered a Kd of 12.4 nM.
Same read-out and setting: with B9 the figure was 14.9 nM.
B12: the dissociation constant (Kd) was 17.3 nM.

Another assay deals with T4, cynomolgus monkey FcRn. Kind of assay: SPR, pH 7.4.
B1 showed a Kd of 1370 nM.
On the same count and under the same terms, with B2 the figure was 1430 nM.
The molecule B3 came in with a dissociation constant Kd of 1680 nM.
On the same count and under the same terms, with B4 the figure was 1700 nM; with B5, 1370 nM; with B6, 1540 nM.
Same read-out and setting: with B14 the figure was 725 nM; with B7, 1550 nM; with B8, 1600 nM.
As for B9, the Kd is 948 nM.
On to B10, for which binding was characterised by a dissociation constant (Kd) of 1430 nM.
Take B11: the Kd stood at 2190 nM.
The molecule B12 yielded a dissociation constant (Kd) of 900 nM.
The same measure, in the same setting: with B13 the figure was 2110 nM.

Another assay has as its target T3, Recombinant in-house Human FcRn protein. Kind of assay: competitive binding ELISA, pH 6.0; competitor Efgartigimod (Fc Fragment 1).
On to B1, for which the IC50 was determined as 4.82 nM.
As for B4, the IC50 is 6.47 nM.
On to B5, for which the IC50 amounted to 4.71 nM.
For B6, the IC50 came out at 4.09 nM.
Turning to B14, the IC50 turned out to be 5.03 nM.
Consider B8, for which the 50% inhibitory concentration (IC50) is 3.85 nM.
Regarding B9, the IC50 turned out to be 4.59 nM.
Take B12: the IC50 was 3.73 nM.

In the next assay the target is FcRn-GFP. Kind of assay: cell-based or functional assay.
B15: the “Average (n = 3) Residual FcRn” value is 20.
